Assays:
[1] = molecular target: T1, XTEN_AE864
T1 chain: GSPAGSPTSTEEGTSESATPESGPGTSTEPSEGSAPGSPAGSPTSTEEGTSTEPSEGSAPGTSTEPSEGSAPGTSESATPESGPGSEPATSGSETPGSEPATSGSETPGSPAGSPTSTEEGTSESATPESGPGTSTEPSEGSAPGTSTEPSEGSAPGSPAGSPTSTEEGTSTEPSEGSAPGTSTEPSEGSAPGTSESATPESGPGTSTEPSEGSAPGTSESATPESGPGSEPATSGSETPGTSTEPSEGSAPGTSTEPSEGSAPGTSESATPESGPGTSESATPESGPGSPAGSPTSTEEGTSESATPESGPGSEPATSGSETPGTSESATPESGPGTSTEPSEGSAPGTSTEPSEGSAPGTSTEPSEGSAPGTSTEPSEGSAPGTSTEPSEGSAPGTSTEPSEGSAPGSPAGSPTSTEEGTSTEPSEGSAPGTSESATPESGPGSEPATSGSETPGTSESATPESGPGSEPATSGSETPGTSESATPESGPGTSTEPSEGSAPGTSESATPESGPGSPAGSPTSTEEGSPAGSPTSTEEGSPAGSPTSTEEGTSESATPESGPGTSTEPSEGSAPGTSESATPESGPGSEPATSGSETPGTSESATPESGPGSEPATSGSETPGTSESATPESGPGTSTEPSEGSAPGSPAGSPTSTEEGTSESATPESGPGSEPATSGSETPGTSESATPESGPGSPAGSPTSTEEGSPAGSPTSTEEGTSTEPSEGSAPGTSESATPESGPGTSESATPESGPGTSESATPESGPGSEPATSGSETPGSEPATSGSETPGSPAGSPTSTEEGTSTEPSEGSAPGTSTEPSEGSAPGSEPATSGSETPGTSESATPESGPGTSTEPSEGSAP

[2] = molecular target: T2, AC1254 (CCD1-BSRS1-AE713)
T2 chain: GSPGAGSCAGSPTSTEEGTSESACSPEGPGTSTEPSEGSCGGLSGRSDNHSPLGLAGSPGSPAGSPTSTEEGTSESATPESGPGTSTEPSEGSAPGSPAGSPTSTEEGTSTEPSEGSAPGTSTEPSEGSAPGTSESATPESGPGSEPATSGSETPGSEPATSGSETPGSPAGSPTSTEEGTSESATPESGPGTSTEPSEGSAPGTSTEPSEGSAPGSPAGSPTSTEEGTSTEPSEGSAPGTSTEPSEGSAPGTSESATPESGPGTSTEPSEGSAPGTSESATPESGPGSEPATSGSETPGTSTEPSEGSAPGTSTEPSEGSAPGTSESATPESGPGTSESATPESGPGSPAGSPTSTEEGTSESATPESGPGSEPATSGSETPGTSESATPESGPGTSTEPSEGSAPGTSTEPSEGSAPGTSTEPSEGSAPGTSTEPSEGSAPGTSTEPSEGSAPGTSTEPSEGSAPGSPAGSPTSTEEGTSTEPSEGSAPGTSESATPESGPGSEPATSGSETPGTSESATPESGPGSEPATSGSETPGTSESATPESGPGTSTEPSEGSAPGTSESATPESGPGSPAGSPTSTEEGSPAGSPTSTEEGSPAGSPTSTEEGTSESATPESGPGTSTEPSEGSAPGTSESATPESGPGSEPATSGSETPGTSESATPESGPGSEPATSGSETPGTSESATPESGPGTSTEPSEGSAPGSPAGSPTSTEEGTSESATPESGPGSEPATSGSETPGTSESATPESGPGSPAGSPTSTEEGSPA

B1: human neutrophil elastase (protein)
chain: IVGGRRARPHAWPFMVSLQLRGGHFCGATLIAPNFVMSAAHCVANVNVRAVRVVLGAHNLSRREPTRQVFAVQRIFENGYDPVNLLNDIVILQLNGSATINANVQVAQLPAQGRRLGNGVQCLAMGWGLLGRNRGIASVLQELNVTVVTSLCRRSNVCTLVRGRQAGVCFGDSGSPLVCNGLIHGIASFVRGGCASGLYPDAFAPVAQFVNWIDSIIQ
proteolytic degradation (SDS-PAGE), elastase:XTEN 1:100, 2 h, 37 C [1]: XTEN_AE864 was completely digested by neutrophil elastase at the 1:100 molar ratio
proteolytic degradation (SDS-PAGE), elastase:XTEN 1:1000, 2 h, 37 C [1]: Partial degradation was observed for XTEN_AE864 when incubating with neutrophil elastase at the 1:1000 molar ratio

B2: recombinant human matriptase (protein)
chain: VVGGTDADEGEWPWQVSLHALGQGHICGASLISPNWLVSAAHCYIDDRGFRYSDPTQWTAFLGLHDQSQRSAPGVQERRLKRIISHPFFNDFTFDYDIALLELEKPAEYSSMVRPICLPDASHVFPAGKAIWVTGWGHTQYGGTGALILQKGEIRVINQTTCENLLPQQITPRMMCVGFLSGGVDSCQGDSGGPLSSVEADGRIFQAGVVSWGDGCAQRNKPGVYTRLPLFRDWIKENTGV
proteolytic cleavage at the PCM (SDS-PAGE, C4 RP-HPLC); enzyme:substrate 1:12.5, 2 h, 37 C [2]: all proteases tested here cleaved the construct as intended, with varying degree of catalytic efficiency

B3: recombinant mouse MMP-9 (protein)
chain: FQTFKGLKWDHHNITYWIQNYSEDLPRDMIDDAFARAFAVWGEVAPLTFTRVYGPEADIVIQFGVAEHGDGYPFDGKDGLLAHAFPPGAGVQGDAHFDDDELWSLGKGVVIPTYYGNSNGAPCHFPFTFEGRSYSACTTDGRNDGTPWCSTTADYDKDGKFGFCPSERLYTEHGNGEGKPCVFPFIFEGRSYSACTTKGRSDGYRWCATTANYDQDKLYGFCPTRVDATVVGGNSAGELCVFPFVFLGKQYSSCTSDGRRDGRLWCATTSNFDTDKKWGFCPDQGYSLFLVAAHEFGHALGLDHSSVPEALMYPLYSYLEGFPLNKDDIDGIQYLYGRGSKPDPRPPATTTTEPQPTAPPTMCPTIPPTAYPTVGPTVGPTGAPSPGPTSSPSPGPTGAPSPGPTAPPTAGSSEASTESLSPADNPCNVDVFDAIAEIQGALHFFKDGWYWKFLNHRGSPLQGPFLTARTWPALPATLDSAFEDPQTKRVFFFSGRQMWVYTGKTVLGPRSLDKLGLGPEVTHVSGLLPRRLGKALLFSKGRVWRFDLKSQKVDPQSVIRVDKEFSGVPWNSHDIFQYQDKAYFCHGKFFWRVSFQNEVNKVDHEVNQVDDVGYVTYDLLQCP
proteolytic cleavage at the PCM (SDS-PAGE, C4 RP-HPLC); enzyme:substrate 1:6711, 2 h, 37 C [2]: all proteases tested here cleaved the construct as intended, with varying degree of catalytic efficiency

B4: recombinant human MMP-7 (protein)
chain: YSLFPNSPKWTSKVVTYRIVSYTRDLPHITVDRLVSKALNMWGKEIPLHFRKVVWGTADIMIGFARGAHGDSYPFDGPGNTLAHAFAPGTGLGGDAHFDEDERWTDGSSLGINFLYAATHELGHSLGMGHSSDPNAVMYPTYGNGDPQNFKLSQDDIKGIQKLYGKRSNSRKK
proteolytic cleavage at the PCM (SDS-PAGE, C4 RP-HPLC); enzyme:substrate 1:200, 2 h, 37 C [2]: all proteases tested here cleaved the construct as intended, with varying degree of catalytic efficiency

Reference: US20180125988
